From article PMC9873567 (2022)
Like-named read-outs stand apart in the source and are kept apart here.

Tests used:
ERECTA = ERECTA (UniProt Q42371); test: anti-MYC co-IP, anti-HA blot
GST-PUB30 [1] = biological target: T1, GST-PUB30 (Arabidopsis thaliana, UniProt Q058P4 1-448); test: BLI
T1 chain: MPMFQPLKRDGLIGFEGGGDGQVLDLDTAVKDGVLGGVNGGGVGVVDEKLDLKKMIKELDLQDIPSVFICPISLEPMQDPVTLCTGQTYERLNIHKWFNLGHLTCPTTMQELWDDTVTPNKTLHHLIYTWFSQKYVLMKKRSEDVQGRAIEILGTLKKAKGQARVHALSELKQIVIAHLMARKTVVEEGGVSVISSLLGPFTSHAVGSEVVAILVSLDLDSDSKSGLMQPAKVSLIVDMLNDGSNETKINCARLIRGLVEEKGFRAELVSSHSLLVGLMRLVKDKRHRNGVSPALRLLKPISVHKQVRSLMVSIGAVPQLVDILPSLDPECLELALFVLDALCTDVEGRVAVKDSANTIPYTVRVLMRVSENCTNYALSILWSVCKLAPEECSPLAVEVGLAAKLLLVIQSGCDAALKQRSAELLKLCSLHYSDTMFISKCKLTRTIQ

GST-PUB31 [2] = biological target: T2, GST-PUB31 (Arabidopsis thaliana, UniProt Q9FHN9 1-444); test: BLI
T2 chain: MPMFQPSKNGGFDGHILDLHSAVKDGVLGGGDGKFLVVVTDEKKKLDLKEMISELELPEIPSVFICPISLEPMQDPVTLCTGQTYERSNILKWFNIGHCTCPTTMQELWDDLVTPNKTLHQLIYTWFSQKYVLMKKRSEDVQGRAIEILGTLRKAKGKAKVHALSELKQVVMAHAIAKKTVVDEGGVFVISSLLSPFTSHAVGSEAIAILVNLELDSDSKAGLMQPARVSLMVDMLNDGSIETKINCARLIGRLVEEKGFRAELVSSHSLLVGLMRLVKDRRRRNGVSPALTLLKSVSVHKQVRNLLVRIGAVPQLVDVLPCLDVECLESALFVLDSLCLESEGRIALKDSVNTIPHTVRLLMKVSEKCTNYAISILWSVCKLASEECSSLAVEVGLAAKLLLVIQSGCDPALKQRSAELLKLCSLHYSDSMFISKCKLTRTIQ

GST-PUB30 [3] = biological target: T1, GST-PUB30; test: BLI
GST-PUB31 [4] = biological target: T2, GST-PUB31; test: BLI

PUB31 (from UniProt Q9FHN9) PUB31 T151A-MYC
binding against the reference (ERECTA; reference: wild type PUB31-MYC, sites T151): weaker

PUB30 (from UniProt Q058P4) PUB30 T155A-MYC
binding against the reference (ERECTA; reference: wild type PUB30-MYC, sites T155): weaker

B1: MBP-ERECTA_CD (domain or fragment)
chain: CRPHNPPPFLDGSLDKPVTYSTPKLVILHMNMALHVYEDIMRMTENLSEKYIIGHGASSTVYKCVLKNCKPVAIKRLYSHNPQSMKQFETELEMLSSIKHRNLVSLQAYSLSHLGSLLFYDYLENGSLWDLLHGPTKKKTLDWDTRLKIAYGAAQGLAYLHHDCSPRIIHRDVKSSNILLDKDLEARLTDFGIAKSLCVSKSHTSTYVMGTIGYIDPEYARTSRLTEKSDVYSYGIVLLELLTRRKAVDDESNLHHLIMSKTGNNEVMEMADPDITSTCKDLGVVKKVFQLALLCTKRQPNDRPTMHQVTRVLGSFMLSEQPPAATDTSATLAGSCYVDEYANLKTPHSVNCSSMSASDAQLFLRFGQVISQNSE
Kd (GST-PUB30 [1]): 15 µM
Kd (GST-PUB31 [2]): 11 µM

B2: MBP-BAK1_CD (domain or fragment)
chain: AWWRRKKPQDHFFDVPAEEDPEVHLGQLKRFSLRELQVASDNFSNKNILGRGGFGKVYKGRLADGTLVAVKRLKEERTQGGELQFQTEVEMISMAVHRNLLRLRGFCMTPTERLLVYPYMANGSVASCLRERPESQPPLDWPKRQRIALGSARGLAYLHDHCDPKIIHRDVKAANILLDEEFEAVVGDFGLAKLMDYKDTHVTTAVRGTIGHIAPEYLSTGKSSEKTDVFGYGVMLLELITGQRAFDLARLANDDDVMLLDWVKGLLKEKKLEALVDVDLQGNYKDEEVEQLIQVALLCTQSSPMERPKMSEVVRMLEGDGLAERWEEWQKEEMFRQDFNYPTHHPAVSGWIIGDSTSQIENEYPSGPR
Kd (GST-PUB30 [3]): 2.4 µM
Kd (GST-PUB31 [4]): 2 µM
